Data published in patent publication US20240376163.

B1: MKK4 (activated recombinant kinase) (protein)
chain: MAAPSPSGGGGSGGGSGSGTPGPVGSPAPGHPAVSSMQGKRKALKLNFANPPFKSTARFTLNPNPTGVQNPHIERLRTHSIESSGKLKISPEQHWDFTAEDLKDLGEIGRGAYGSVNKMVHKPSGQIMAVKRIRSTVDEKEQKQLLMDLDVVMRSSDCPYIVQFYGALFREGDCWICMELMSTSFDKFYKYVYSVLDDVIPEEILGKITLATVKALNHLKENLKIIHRDIKPSNILLDRSGNIKLCDFGISGQLVDSIAKTRDAGCRPYMAPERIDPSASRQGYDVRSDVWSLGITLYELATGRFPYPKWNSVFDQLTQVVKGDPPQLSNSEEREFSPSFINFVNLCLTKDESKRPKYKELLKHPFILMYEERAVEVACYVCKILDQMPATPSSPMYVD
B2: JNK1 (activated recombinant kinase) (protein)
chain: MSRSKRDNNFYSVEIGDSTFTVLKRYQNLKPIGSGAQGIVCAAYDAILERNVAIKKLSRPFQNQTHAKRAYRELVLMKCVNHKNIIGLLNVFTPQKSLEEFQDVYIVMELMDANLCQVIQMELDHERMSYLLYQMLCGIKHLHSAGIIHRDLKPSNIVVKSDCTLKILDFGLARTAGTSFMMTPYVVTRYYRAPEVILGMGYKENVDLWSVGCIMGEMVCHKILFPGRDYIDQWNKVIEQLGTPCPEFMKKLQPTVRTYVENRPKYAGYSFEKLFPDVLFPADSEHNKLKASQARDLLSKMLVIDASKRISVDEALQHPYINVWYDPSEAEAPPPKIPDKQLDEREHTIEEWKELIYKEVMDLEERTKNGVIRGQPSPLAQVQQ

Tests used:
GST-tagged CABIN1-L-1-2 = molecular target: T1, GST-tagged CABIN1-L-1-2
T1 chain: PEITVTPPTP

[1] = molecular target: T2, GST-tagged VIVIT peptide (VIVIT 10-mer)
T2 chain: PVIVITGPHE

GST-tagged VIVIT PPTP = molecular target: T3, GST-tagged VIVIT PPTP
T3 chain: PVIVITPPTP

Protein | in vitro kinase assay (32P incorporation) (GST-tagged CABIN1-L-1-2) | in vitro kinase assay (32P incorporation) [1] | in vitro kinase assay (32P incorporation) (GST-tagged VIVIT PPTP)
B1 | the MAPK family (EKR, JNK, and p38) and MKK4 directly phosphorylate CABIN1 peptide |  | 
B2 | ERK2, JNK1, and p38a phosphorylate purified recombinant GST-tagged peptide containing PPTP sequence (CABIN1-L-1-2 and VIVIT PPTP), but not GST-tagged VIVIT peptide | but not GST-tagged VIVIT peptide | ERK2, JNK1, and p38a phosphorylate purified recombinant GST-tagged peptide containing PPTP sequence (CABIN1-L-1-2 and VIVIT PPTP), but not GST-tagged VIVIT peptide
